The target in the assay is T1, HA-hFc probe: H1N1 A/California/04/2009 HA ectodomain fused to human IgG1 Fc (Influenza A virus A/California/04/2009 …, UniProt C3W5S1).
T1 construct: also called HA-probe; HA-human Fc probe; source: High Five insect cells (recombinant baculovirus), purified (HiTrap Protein G); not shown: Fc (human IgG1), C-terminal, kept
Nature of the assay: flow cytometry on cells. As to conditions: one partner purified.

B1: fTfR-5J8 (Flag+) mutant D100bL (scFv, V domains shown)
VH: EVQLVESGPGLVKPSDILSLTCAVSGYSISSNYYWGWIRQPPGKGLEWIGSIYHSGSTYYKPSLESRLGISVDTSKNQFSLKLSFVSAADTAVYYCARHVRSGYPLTAYYFDKWGQGTLVTVSS
VL: SYVLTQPPSVSVAPGETARISCGGNNIGTKVLHWYQQTPGQAPVLVVYDDSDRPSGIPERFSGSNSGNTATLTISRVEVGDEADYYCQVWDISTDQAVFGGGTKLTVL
notes: also called D100bLeu
In the case of B1, the binding result is “binds”.

The values above are taken from paper PMC12090727, “Cell binding, uptake, and infection of influenza A virus using recombinant antibody-based receptors” (Journal of Virology, 2025).
